Patent US20180186893A1 (NATIONAL RESEARCH COUNCIL OF CANADA, published 2018)

Columns and labels:
[1] = molecular target: T1, human CA-XII extracellular domain (ECD) (human, UniProt O43570 25-301); assay: SPR, antibody captured by anti-human Fc
T1 construct: extracellular domain

rhCA-XII = molecular target: T2, rhCA-XII (human, UniProt O43570 25-291, limits assumed); assay: SPR, antibody captured by anti-human Fc
T2 construct: Bought; construct not described; also called recombinant human CA-XII (Sino Biologics)

rmCA-IX = molecular target: T3, rmCA-IX (murine, UniProt Q8VHB5 32-389, limits assumed); assay: SPR, antibody captured by anti-human Fc
T3 construct: Bought; construct not described; also called recombinant murine (rm)CA-IX

rhCA-IV = molecular target: T4, rhCA-IV (human, UniProt P22748 19-283, limits assumed); assay: SPR, antibody captured by anti-human Fc
T4 construct: Bought; construct not described; also called recombinant human CA-IV

rhCA-XIV = molecular target: T5, rhCA-XIV (human, UniProt Q9ULX7 16-290, limits assumed); assay: SPR, antibody captured by anti-human Fc
T5 construct: Bought; construct not described; also called recombinant human CA-XIV

[2] = molecular target: T6, dimeric CA-IX extracellular domain (ECD) from mouse (mouse, UniProt Q8VHB5 32-390); assay: SPR, antibody captured by anti-human Fc, specific binding yes/no
T6 construct: extracellular domain

[3] = molecular target: human Carbonic Anhydrase IX (hCA-IX) (human, UniProt Q16790 38-459); assay: cell-based or functional assay
rhCA-IX ECD dimer = rhCA-IX ECD dimer (human, UniProt Q16790 38-414); assay: SPR (ProteOn XPR36), antibody captured by anti-human Fc, 0.74-60 nM antigen flowed, 1:1 model, 25 C
[4] = molecular target: T7, hCA-IX PG domain fragment #8 (aa 107-121) displayed on yeast as Aga2-HA-CA9-MYC (pPNL6), clone 8 A + B (human, UniProt P32781 19-87 (Saccharomyces cerevisiae entry)); assay: YSD whole yeast cell ELISA, native PG tiling fragment;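 note: monoclonal antibody binding to intact yeast cells displaying the fragment, read by ELISA, with the anti-CA-IX signal normalized against the anti-MYC display signal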
T7 construct: not shown: HA tag; MYC tag

[5] = molecular target: T8, hCA-IX PG domain fragment #9 (aa 117-131) displayed on yeast as Aga2-HA-CA9-MYC (pPNL6), clone 9 A + B (human, UniProt P32781 19-87 (Saccharomyces cerevisiae entry)); assay: as above
T8 construct: not shown: HA tag; MYC tag

[6] = molecular target: T9, hCA-IX PG domain fragment #4 (aa 67-81) displayed on yeast as Aga2-HA-CA9-MYC (pPNL6), clone 4 A + B (human, UniProt P32781 19-87 (Saccharomyces cerevisiae entry)); assay: as above
T9 construct: not shown: HA tag; MYC tag

[7] = molecular target: T10, hCA-IX PG domain fragment #2 (aa 47-61) displayed on yeast as Aga2-HA-CA9-MYC (pPNL6), clone 2 A + B (human, UniProt P32781 19-87 (Saccharomyces cerevisiae entry)); assay: as above
T10 construct: not shown: HA tag; MYC tag

[8] = molecular target: T11, hCA-IX PG domain fragment #6 (aa 87-101) displayed on yeast as Aga2-HA-CA9-MYC (pPNL6), clone 6 A + B (human, UniProt P32781 19-87 (Saccharomyces cerevisiae entry)); assay: as above
T11 construct: not shown: HA tag; MYC tag

[9] = molecular target: T12, hCA-IX PG domain fragment #3 (aa 57-71) displayed on yeast as Aga2-HA-CA9-MYC (pPNL6), clone 3 A + B (human, UniProt P32781 19-87 (Saccharomyces cerevisiae entry)); assay: as above
T12 construct: not shown: HA tag; MYC tag

[10] = molecular target: T13, hCA-IX PG domain fragment #12 (aa 67-111) displayed on yeast as Aga2-HA-CA9-MYC (pPNL6), clone 12 A + B (human, UniProt P32781 19-87 (Saccharomyces cerevisiae entry)); assay: as above
T13 construct: not shown: HA tag; MYC tag

[11] = molecular target: T14, hCA-IX PG domain fragment #10 (aa 126-140) displayed on yeast as Aga2-HA-CA9-MYC (pPNL6), clone 10 A + B (human, UniProt P32781 19-87 (Saccharomyces cerevisiae entry)); assay: as above
T14 construct: not shown: HA tag; MYC tag

[12] = molecular target: T15, hCA-IX PG domain fragment #5 (aa 77-91) displayed on yeast as Aga2-HA-CA9-MYC (pPNL6), clone 5 A + B (human, UniProt P32781 19-87 (Saccharomyces cerevisiae entry)); assay: as above
T15 construct: not shown: HA tag; MYC tag

[13] = molecular target: T16, hCA-IX PG domain fragment #7 (aa 97-111) displayed on yeast as Aga2-HA-CA9-MYC (pPNL6), clone 7 A + B (human, UniProt P32781 19-87 (Saccharomyces cerevisiae entry)); assay: as above
T16 construct: not shown: HA tag; MYC tag

[14] = molecular target: T17, hCA-IX PG domain fragment #13 (aa 107-140) displayed on yeast as Aga2-HA-CA9-MYC (pPNL6), clone 13 A + B (human, UniProt P32781 19-87 (Saccharomyces cerevisiae entry)); assay: as above
T17 construct: not shown: HA tag; MYC tag

[15] = molecular target: T18, hCA-IX PG domain fragment #1 (aa 37-51) displayed on yeast as Aga2-HA-CA9-MYC (pPNL6), clone 1 A + B (human, UniProt P32781 19-87 (Saccharomyces cerevisiae entry)); assay: YSD whole yeast cell ELISA, native PG tiling fragment, normalised to anti-MYC
T18 construct: not shown: HA tag; MYC tag

[16] = molecular target: T19, hCA-IX PG domain fragment #11 (aa 37-71) displayed on yeast as Aga2-HA-CA9-MYC (pPNL6), clone 11 A + B (human, UniProt P32781 19-87 (Saccharomyces cerevisiae entry)); assay: as above
T19 construct: not shown: HA tag; MYC tag

[17] = molecular target: T20, hCA-IX PG domain fragment #14 (aa 37-140) displayed on yeast as Aga2-HA-CA9-MYC (pPNL6), clone 14 A + B (human, UniProt P32781 19-87 (Saccharomyces cerevisiae entry)); assay: as above
T20 construct: not shown: HA tag; MYC tag

[18] = molecular target: T21, hCA-IX fragment 8 (aa 38-414, +PG+CA+) displayed on yeast as Aga2-HA-CA9-MYC (pPNL6), clone 8B (human, UniProt P32781 19-87; Q16790 38-414); assay: YSD whole yeast cell ELISA, heat-denatured (80 C, 30 min), normalised to anti-MYC
[19] = molecular target: T22, hCA-IX fragment 2 (aa 38-136, +PG+) displayed on yeast as Aga2-HA-CA9-MYC (pPNL6), clone 2B (human, UniProt P32781 19-87; Q16790 38-136); assay: YSD whole yeast cell ELISA, native, normalised to anti-MYC
T22 construct: not shown: HA tag; MYC tag

[20] = molecular target: T18, hCA-IX PG domain fragment #1 (aa 37-51) …; assay: YSD whole yeast cell ELISA, native PG tiling fragment;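 note: monoclonal antibody binding to intact yeast cells displaying the fragment, read by ELISA, with the anti-CA-IX signal normalized against the anti-MYC display signal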
[21] = molecular target: T19, hCA-IX PG domain fragment #11 (aa …); assay: as above
[22] = molecular target: T11, hCA-IX PG domain fragment #6 (aa …); assay: YSD whole yeast cell ELISA, native PG tiling fragment, normalised to anti-MYC
[23] = molecular target: T13, hCA-IX PG domain fragment #12 (aa …); assay: as above
[24] = molecular target: T15, hCA-IX PG domain fragment #5 (aa 77-91) …; assay: as above
[25] = molecular target: T21, hCA-IX fragment 8 (aa 38-414, +PG+CA+) …; assay: YSD whole yeast cell ELISA, native, normalised to anti-MYC

T14 sequence (P32781 19-87 limits assumed): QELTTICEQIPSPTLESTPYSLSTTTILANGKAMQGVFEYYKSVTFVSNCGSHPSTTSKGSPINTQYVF
T18 sequence (P32781 19-87 limits assumed): as above
T10 sequence (P32781 19-87 limits assumed): as above
T22 sequence (P32781 19-87 limits assumed, chain 1 of 2, other chains not shown): as the sequence (P32781 19-87 limits assumed) above
T16 sequence (P32781 19-87 limits assumed): as above
T9 sequence (P32781 19-87 limits assumed): as above
T20 sequence (P32781 19-87 limits assumed, chain 1 of 2): as the sequence (P32781 19-87 limits assumed) above
T20 sequence (chain (part 2 of 2), as listed by the source limits assumed, chain 2 of 2): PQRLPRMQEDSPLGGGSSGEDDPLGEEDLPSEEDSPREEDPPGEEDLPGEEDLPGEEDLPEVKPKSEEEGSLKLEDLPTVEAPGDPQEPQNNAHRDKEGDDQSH
T15 sequence (P32781 19-87 limits assumed): as the sequence (P32781 19-87 limits assumed) above
T11 sequence (P32781 19-87 limits assumed): as above
T21 sequence (P32781 19-87 limits assumed, chain 1 of 2, other chains not shown): as the sequence (P32781 19-87 limits assumed) above
T13 sequence (P32781 19-87 limits assumed, chain 1 of 2): as the sequence (P32781 19-87 limits assumed) above
T13 sequence (chain (part 2 of 2), as listed by the source limits assumed, chain 2 of 2): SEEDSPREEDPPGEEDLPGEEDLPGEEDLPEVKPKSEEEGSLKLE
T12 sequence (P32781 19-87 limits assumed): as the sequence (P32781 19-87 limits assumed) above
T8 sequence (P32781 19-87 limits assumed): as above
T19 sequence (P32781 19-87 limits assumed, chain 1 of 2): as the sequence (P32781 19-87 limits assumed) above
T19 sequence (chain (part 2 of 2), as listed by the source limits assumed, chain 2 of 2): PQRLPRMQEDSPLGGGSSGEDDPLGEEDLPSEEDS
T3 sequence (Q8VHB5 32-389 limits assumed): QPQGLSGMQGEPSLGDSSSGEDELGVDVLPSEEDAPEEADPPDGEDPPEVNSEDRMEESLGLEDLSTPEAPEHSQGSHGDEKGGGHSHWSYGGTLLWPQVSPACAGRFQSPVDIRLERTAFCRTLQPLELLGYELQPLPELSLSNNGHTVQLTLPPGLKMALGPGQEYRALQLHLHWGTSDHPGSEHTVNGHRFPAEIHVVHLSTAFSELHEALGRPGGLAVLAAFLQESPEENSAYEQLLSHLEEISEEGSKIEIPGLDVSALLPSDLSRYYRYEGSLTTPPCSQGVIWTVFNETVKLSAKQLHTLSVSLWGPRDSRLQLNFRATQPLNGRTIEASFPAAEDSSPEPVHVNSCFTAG
T5 sequence (Q9ULX7 16-290 limits assumed): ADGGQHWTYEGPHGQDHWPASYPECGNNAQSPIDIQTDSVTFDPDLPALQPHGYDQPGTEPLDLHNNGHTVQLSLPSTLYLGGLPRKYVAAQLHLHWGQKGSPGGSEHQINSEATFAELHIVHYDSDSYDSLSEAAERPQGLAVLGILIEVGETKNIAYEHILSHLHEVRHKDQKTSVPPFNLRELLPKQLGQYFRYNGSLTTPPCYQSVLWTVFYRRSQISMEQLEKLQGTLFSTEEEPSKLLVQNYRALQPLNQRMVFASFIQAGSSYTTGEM
T4 sequence (P22748 19-283 limits assumed): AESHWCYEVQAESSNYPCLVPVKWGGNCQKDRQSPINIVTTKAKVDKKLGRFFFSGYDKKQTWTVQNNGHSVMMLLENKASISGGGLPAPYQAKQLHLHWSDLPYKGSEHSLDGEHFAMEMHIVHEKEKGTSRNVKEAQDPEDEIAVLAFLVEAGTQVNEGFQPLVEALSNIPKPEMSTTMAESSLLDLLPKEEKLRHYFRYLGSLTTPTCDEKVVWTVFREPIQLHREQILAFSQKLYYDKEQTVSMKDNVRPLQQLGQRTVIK
T2 sequence (O43570 25-291 limits assumed): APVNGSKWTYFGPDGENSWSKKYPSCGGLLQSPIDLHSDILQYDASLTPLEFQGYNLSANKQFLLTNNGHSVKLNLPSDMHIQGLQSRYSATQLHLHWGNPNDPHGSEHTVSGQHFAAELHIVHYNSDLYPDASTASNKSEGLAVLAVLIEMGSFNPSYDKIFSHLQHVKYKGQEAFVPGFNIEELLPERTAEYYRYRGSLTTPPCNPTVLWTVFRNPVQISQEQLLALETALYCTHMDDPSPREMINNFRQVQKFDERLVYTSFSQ
T1 sequence (O43570 25-301): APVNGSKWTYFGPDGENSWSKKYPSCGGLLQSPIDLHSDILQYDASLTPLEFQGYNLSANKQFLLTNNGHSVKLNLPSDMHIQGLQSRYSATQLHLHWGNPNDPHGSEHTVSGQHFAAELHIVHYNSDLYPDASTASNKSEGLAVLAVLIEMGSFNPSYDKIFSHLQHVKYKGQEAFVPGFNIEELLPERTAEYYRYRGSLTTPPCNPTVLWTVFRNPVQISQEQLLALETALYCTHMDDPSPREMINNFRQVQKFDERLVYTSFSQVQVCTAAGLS
T7 sequence (P32781 19-87 limits assumed): as the sequence (P32781 19-87 limits assumed) above
T17 sequence (P32781 19-87 limits assumed, chain 1 of 2): as the sequence (P32781 19-87 limits assumed) above
T17 sequence (chain (part 2 of 2), as listed by the source limits assumed, chain 2 of 2): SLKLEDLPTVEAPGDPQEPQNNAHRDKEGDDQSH
T6 sequence (Q8VHB5 32-390): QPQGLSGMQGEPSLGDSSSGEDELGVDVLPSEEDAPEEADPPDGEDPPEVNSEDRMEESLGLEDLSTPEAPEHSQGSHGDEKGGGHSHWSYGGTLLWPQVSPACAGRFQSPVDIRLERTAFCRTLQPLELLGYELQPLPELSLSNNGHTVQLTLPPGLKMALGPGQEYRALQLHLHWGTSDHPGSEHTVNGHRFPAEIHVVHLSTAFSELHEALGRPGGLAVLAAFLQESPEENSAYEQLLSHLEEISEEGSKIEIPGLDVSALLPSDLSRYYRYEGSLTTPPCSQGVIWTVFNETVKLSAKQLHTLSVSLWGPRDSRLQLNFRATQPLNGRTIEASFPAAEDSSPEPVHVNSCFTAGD

Binder	binding result [1]	binding result (rhCA-XII)	binding result (rmCA-IX)	binding result (rhCA-IV)	binding result (rhCA-XIV)	binding result [5]	binding result [6]	binding result [7]	binding result [9]	binding result [11]	binding result [13]	binding result [17]	binding result [19]	further results
c12H8 (chimeric 12H8, human IgG1 / human kappa 1) (antibody, V domains shown, Expressed in CHO cells) VH: QIQLVQSGPELKKPGETVKISCKASGYTFTNYGMNWVQQAPGKGLKWMGWINTYTGEPTYADDFKGRFAFSLETSASTAYLQINNLKNEDMATYFCARGGIATPTSYWGQGTTLTVSS VL: not shown	no binding (tested: 100 nM)	no binding (tested: 100 nM)	no binding (tested: 100 nM)	no binding (tested: 100 nM)	no binding (tested: 100 nM)	no binding	no binding	no binding	no binding	no binding	no binding	binds	binds	binding result [2]: no binding; IC50 (nM), cell viability of sk-rc-52 cells, surrogate ADC assay (Mab-Zap saporin secondary antibody) [3]: 23.6 nM; Kd (rhCA-IX ECD dimer): 0.979 nM; binding result [4]: no binding; binding result [8]: no binding; binding result [10]: no binding; binding result [12]: no binding; binding result [14]: no binding; binding result [15]: binds; binding result [16]: binds; binding result [18]: binds
c11H9 (chimeric 11H9, human IgG1 / human kappa 1) (antibody, V domains shown, Expressed in CHO cells; also called chimeric (c) 11H9; c1H9) VH: EVQLVESGGRLVQPKGSLKLSCAASGFTFNTYAMYWIRQAPGKGLEWVARIRSKSNNYAIYYADSVKDRFTISRDDSQSMLYLQMNNLKTEDTAMYYCVRGWDWFAYWGQGTPVTVSA VL: DVVMTQTPLSLPVSLGDQASISCRSSQSLVHSNGNTYLHWYLQKPGQSPKLLIYKVSNRFSGVPDRFSGSGSGTDFTLKISRVEAEDLGVYFCSQNTHVPPTFGGGTKLEIKR	no binding (tested: 100 nM)	no binding (tested: 100 nM)	no binding (tested: 100 nM)	no binding (tested: 100 nM)	no binding (tested: 100 nM)	no binding	no binding	no binding	no binding	no binding	no binding	binds	binds	binding result [20]: no binding; binding result [21]: no binding; binding result [22]: binds; binding result [23]: binds; binding result [24]: binds; binding result [25]: binds
